Results published in patent US20180318386A1, “PEPTIDES AND METHODS OF TREATING ENDOMETRIOSIS USING THE SAME” (BIOINCEPT, LLC, priority 2014, published 2018).

Legend:
Experiment in all cases: PIF affinity resin pull-down, CD14+ cell lysate, LC-MS/MS count
[1] = molecular target: Nuclear autoantigenic sperm protein (human) (UniProt P49321)
Hornerin (human) = Hornerin (human) (UniProt Q86YZ3)
Gelsolin (human) = Gelsolin (human) (UniProt P06396)
[2] = molecular target: Isoform 2 of Ras suppressor protein 1 (human) (UniProt Q15404)
Sequence of Isoform 2 of Ras suppressor protein 1 (human) (Q15404 54-277 limits assumed): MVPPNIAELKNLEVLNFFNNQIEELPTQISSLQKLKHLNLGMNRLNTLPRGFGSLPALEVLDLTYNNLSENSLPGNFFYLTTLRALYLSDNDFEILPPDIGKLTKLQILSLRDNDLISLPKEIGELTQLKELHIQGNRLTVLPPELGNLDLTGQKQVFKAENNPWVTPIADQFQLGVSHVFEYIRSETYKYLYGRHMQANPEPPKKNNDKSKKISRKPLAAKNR

[3] = molecular target: Actin, cytoplasmic 2 (human) (UniProt P63261)
[4] = molecular target: Tropomyosin alpha-3 chain (human) (UniProt P06753)
[5] = molecular target: Isoform 2 of Adenylyl cyclase-associated protein 1 (human) (UniProt Q01518)
[6] = molecular target: Protein disulfide-isomerase (human) (UniProt P07237)
Myosin-9 (human) = Myosin-9 (human) (UniProt P35579)
Calmodulin (human) = Calmodulin (human) (UniProt P0DP23)
Tropomodulin-3 (human) = Tropomodulin-3 (human) (UniProt Q9NYL9)
Histone H4 (human) = Histone H4 (human) (UniProt P62805)
[7] = molecular target: Isoform Short of 14-3-3 protein beta/alpha (human) (UniProt P31946)
Sequence of Isoform Short of 14-3-3 protein beta/alpha (human) (P31946 3-246 limits assumed): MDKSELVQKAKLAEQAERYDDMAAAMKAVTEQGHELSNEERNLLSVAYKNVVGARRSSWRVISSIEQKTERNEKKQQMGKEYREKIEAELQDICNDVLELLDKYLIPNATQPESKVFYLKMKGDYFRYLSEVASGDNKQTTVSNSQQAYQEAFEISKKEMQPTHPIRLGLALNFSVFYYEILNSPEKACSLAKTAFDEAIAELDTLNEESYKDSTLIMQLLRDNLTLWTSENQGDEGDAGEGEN

[8] = molecular target: Isoform 1 of Vinculin (human) (UniProt P18206)
Sequence of Isoform 1 of Vinculin (human) (P18206 other isoform, or with tags, fused parts or gaps limits assumed): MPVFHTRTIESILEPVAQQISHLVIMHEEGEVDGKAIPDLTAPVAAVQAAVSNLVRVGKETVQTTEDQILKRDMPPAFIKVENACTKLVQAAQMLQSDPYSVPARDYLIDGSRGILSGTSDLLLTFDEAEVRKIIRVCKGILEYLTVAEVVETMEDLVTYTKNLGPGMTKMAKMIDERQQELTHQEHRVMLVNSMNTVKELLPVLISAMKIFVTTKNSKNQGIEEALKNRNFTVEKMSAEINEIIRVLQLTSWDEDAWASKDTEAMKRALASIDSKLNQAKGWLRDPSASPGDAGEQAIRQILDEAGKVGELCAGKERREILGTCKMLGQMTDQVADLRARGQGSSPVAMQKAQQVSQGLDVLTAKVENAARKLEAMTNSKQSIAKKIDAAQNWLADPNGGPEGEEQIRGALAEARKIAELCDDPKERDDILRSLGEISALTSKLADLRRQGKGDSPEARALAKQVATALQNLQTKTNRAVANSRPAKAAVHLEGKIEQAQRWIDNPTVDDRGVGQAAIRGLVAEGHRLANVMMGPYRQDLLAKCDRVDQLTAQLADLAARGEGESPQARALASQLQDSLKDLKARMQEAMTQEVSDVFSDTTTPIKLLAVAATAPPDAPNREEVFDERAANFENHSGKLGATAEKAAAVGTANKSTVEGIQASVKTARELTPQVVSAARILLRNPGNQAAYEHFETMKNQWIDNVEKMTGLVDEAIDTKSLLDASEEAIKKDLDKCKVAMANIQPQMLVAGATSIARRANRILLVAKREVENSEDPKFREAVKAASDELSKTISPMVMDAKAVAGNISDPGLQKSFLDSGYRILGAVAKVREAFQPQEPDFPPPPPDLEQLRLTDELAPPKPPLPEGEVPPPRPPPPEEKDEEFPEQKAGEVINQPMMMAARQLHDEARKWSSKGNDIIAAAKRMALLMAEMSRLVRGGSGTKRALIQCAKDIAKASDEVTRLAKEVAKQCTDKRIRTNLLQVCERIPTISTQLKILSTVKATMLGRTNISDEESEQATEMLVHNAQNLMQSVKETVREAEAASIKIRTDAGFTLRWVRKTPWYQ

[9] = molecular target: Centrosomal protein of 120 kDa (Fragment) (human) (UniProt Q8N960)
Sequence of Centrosomal protein of 120 kDa (Fragment) (human) (Q8N960 whole entry, the tested form may be a part): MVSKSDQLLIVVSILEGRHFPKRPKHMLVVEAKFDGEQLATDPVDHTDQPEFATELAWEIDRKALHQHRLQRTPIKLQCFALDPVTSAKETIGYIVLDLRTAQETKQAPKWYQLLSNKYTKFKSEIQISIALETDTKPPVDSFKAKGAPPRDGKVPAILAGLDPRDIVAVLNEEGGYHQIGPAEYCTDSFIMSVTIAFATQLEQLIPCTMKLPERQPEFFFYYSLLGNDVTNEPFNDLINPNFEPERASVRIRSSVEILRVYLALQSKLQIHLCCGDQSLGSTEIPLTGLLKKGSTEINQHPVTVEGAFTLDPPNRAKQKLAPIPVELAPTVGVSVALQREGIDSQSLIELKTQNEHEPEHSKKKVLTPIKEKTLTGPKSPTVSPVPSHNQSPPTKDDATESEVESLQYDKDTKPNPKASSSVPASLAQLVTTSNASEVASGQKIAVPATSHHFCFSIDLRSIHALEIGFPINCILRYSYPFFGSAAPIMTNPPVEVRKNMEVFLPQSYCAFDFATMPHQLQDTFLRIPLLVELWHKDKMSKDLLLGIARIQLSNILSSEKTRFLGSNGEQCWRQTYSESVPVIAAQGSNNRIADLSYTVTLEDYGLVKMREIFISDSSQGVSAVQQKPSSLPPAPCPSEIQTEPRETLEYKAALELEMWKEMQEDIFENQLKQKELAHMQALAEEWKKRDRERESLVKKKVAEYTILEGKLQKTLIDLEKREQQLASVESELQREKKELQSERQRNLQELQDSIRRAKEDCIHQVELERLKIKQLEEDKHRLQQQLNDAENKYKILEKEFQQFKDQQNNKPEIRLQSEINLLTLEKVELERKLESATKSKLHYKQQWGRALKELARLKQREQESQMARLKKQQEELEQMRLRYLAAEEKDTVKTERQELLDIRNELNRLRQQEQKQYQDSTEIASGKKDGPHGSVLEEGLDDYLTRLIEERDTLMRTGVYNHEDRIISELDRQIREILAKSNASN

Vimentin (human) = Vimentin (human) (UniProt P08670)
[10] = molecular target: 14-3-3 protein eta (human) (UniProt Q04917)
Sequence of 14-3-3 protein eta (human) (Q04917 2-246 limits assumed): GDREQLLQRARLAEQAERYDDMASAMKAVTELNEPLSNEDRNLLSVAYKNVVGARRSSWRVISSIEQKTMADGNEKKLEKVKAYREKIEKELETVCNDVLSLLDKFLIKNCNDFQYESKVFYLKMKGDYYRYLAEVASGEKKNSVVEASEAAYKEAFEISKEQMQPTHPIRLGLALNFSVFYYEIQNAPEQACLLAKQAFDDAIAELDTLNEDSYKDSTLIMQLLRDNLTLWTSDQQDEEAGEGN

Annexin A1 (human) = Annexin A1 (human) (UniProt P04083)
Sequence of Annexin A1 (human) (P04083 2-346 limits assumed): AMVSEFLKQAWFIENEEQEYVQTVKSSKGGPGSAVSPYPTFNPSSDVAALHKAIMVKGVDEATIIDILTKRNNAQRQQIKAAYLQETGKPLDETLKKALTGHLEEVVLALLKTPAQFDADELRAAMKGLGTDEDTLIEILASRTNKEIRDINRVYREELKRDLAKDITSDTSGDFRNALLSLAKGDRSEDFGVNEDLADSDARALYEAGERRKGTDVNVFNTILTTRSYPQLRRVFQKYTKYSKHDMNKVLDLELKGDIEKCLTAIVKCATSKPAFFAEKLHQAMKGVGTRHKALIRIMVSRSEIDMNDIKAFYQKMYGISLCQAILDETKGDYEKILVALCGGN

[11] = molecular target: Tubulin alpha-4A chain (human) (UniProt P68366)
Sequence of Tubulin alpha-4A chain (human) (P68366 whole entry): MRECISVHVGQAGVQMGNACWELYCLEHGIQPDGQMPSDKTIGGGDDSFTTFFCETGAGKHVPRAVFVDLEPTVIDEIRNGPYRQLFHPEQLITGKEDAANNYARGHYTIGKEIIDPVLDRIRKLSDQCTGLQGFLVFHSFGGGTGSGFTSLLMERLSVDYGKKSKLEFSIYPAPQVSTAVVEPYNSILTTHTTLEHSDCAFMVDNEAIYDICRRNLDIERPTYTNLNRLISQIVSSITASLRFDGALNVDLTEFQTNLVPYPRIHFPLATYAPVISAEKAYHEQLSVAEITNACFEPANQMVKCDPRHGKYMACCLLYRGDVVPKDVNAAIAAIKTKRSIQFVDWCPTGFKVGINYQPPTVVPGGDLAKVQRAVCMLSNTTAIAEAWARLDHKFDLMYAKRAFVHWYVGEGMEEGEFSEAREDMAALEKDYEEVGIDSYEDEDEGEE

[12] = molecular target: Lymphocyte-specific protein 1 (human) (UniProt P33241)
[13] = molecular target: 14-3-3 protein zeta/delta (human) (UniProt P63104)
Sequence of 14-3-3 protein zeta/delta (human) (P63104 whole entry, stated change not applied, canonical isoform): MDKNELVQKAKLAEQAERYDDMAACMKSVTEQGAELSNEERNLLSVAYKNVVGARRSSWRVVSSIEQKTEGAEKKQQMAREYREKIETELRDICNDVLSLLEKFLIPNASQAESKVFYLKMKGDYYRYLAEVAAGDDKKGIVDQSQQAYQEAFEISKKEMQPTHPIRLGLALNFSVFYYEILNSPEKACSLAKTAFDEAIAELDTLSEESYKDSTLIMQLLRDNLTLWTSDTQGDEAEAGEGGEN

[14] = molecular target: Isoform SV of 14-3-3 protein epsilon (human) (UniProt P62258)
Sequence of Isoform SV of 14-3-3 protein epsilon (human) (P62258 23-255 limits assumed): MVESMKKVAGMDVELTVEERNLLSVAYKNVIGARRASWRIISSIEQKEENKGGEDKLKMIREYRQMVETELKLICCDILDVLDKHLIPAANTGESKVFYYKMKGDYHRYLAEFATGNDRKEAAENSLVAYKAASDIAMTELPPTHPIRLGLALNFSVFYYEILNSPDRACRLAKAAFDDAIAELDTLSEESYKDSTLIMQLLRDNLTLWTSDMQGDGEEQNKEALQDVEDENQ

[15] = molecular target: Actinin alpha 1 isoform 3 (human) (UniProt P12814)
Filamin-A (human) = Filamin-A (human) (UniProt P21333)

Sequence of Gelsolin (human) (P06396 28-782 limits assumed): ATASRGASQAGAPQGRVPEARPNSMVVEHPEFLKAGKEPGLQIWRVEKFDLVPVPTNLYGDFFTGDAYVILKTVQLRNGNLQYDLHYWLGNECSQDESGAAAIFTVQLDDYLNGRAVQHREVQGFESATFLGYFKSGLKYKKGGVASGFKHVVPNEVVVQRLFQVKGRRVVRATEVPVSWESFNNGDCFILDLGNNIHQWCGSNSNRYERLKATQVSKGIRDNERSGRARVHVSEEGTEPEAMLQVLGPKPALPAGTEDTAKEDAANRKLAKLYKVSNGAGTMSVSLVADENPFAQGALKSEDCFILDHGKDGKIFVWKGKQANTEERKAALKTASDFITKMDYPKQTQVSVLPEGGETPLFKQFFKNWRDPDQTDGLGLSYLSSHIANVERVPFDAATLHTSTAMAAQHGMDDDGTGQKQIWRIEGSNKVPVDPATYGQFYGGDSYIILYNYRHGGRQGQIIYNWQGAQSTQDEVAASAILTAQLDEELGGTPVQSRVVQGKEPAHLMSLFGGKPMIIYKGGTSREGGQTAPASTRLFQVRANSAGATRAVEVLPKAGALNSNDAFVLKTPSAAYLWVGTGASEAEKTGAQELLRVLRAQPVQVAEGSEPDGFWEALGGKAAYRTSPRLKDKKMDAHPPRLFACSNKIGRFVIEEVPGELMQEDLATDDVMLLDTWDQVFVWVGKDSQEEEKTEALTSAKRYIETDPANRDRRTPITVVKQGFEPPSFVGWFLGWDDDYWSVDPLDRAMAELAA

Substance “PIF15 affinity resin (Cys-C6 spacer-PIF15 conjugated to agarose) (peptide)” has an Ave [1] of 1, an Inject 1 [1] of 2 and an Inject 2 [1] of 0. The Inject 3 [1] was 1, the Ave (Hornerin (human)) was 1 and the Inject 1 (Hornerin (human)) was 1. The Inject 2 (Hornerin (human)) was 0, the Inject 3 (Hornerin (human)) was 2 and the Ave (Gelsolin (human)) was 2. The Inject 1 (Gelsolin (human)) was 3, the Inject 2 (Gelsolin (human)) was 1 and the Inject 3 (Gelsolin (human)) was 1. It also gave an Ave [2] of 1, an Inject 1 [2] of 0 and an Inject 2 [2] of 1. It also gave an Inject 3 [2] of 2, an Ave [3] of 7 and an Inject 1 [3] of 6. For the same substance, the Inject 2 [3] was 7, the Inject 3 [3] was 7 and the Ave [4] was 4. The Inject 1 [4] was 4, the Inject 2 [4] was 2 and the Inject 3 [4] was 5. For the same substance, the Ave [5] was 3, the Inject 1 [5] was 4 and the Inject 2 [5] was 3. For the same substance, the Inject 3 [5] was 2, the Ave [6] was 2 and the Inject 1 [6] was 3. It also gave an Inject 2 [6] of 2, an Inject 3 [6] of 2 and an Ave (Myosin-9 (human)) of 10. The Inject 1 (Myosin-9 (human)) was 11, the Inject 2 (Myosin-9 (human)) was 9 and the Inject 3 (Myosin-9 (human)) was 10. It also gave an Ave (Calmodulin (human)) of 4, an Inject 1 (Calmodulin (human)) of 6 and an Inject 2 (Calmodulin (human)) of 4. The Inject 3 (Calmodulin (human)) was 3, the Ave (Tropomodulin-3 (human)) was 1 and the Inject 1 (Tropomodulin-3 (human)) was 1. It also gave an Inject 2 (Tropomodulin-3 (human)) of 2, an Inject 3 (Tropomodulin-3 (human)) of 1 and an Ave (Histone H4 (human)) of 2. For the same substance, the Inject 1 (Histone H4 (human)) was 3, the Inject 2 (Histone H4 (human)) was 0 and the Inject 3 (Histone H4 (human)) was 2. The Ave [7] was 3, the Inject 1 [7] was 3 and the Inject 2 [7] was 3. It also gave an Inject 3 [7] of 4, an Ave [8] of 3 and an Inject 1 [8] of 3. For the same substance, the Inject 2 [8] was 2, the Inject 3 [8] was 3 and the Ave [9] was 1. The Inject 1 [9] was 2, the Inject 2 [9] was 0 and the Inject 3 [9] was 0. For the same substance, the Ave (Vimentin (human)) was 10, the Inject 1 (Vimentin (human)) was 9 and the Inject 2 (Vimentin (human)) was 11. For the same substance, the Inject 3 (Vimentin (human)) was 9, the Ave [10] was 1 and the Inject 1 [10] was 1. For the same substance, the Inject 2 [10] was 1, the Inject 3 [10] was 2 and the Ave (Annexin A1 (human)) was 1. The Inject 1 (Annexin A1 (human)) was 0, the Inject 2 (Annexin A1 (human)) was 0 and the Inject 3 (Annexin A1 (human)) was 2. For the same substance, the Ave [11] was 2, the Inject 1 [11] was 2 and the Inject 2 [11] was 3. It also gave an Inject 3 [11] of 1, an Ave [12] of 2 and an Inject 1 [12] of 4. It also gave an Inject 2 [12] of 2, an Inject 3 [12] of 1 and an Ave [13] of 4. It also gave an Inject 1 [13] of 4, an Inject 2 [13] of 3 and an Inject 3 [13] of 4. For the same substance, the Ave [14] was 3, the Inject 1 [14] was 4 and the Inject 2 [14] was 4. For the same substance, the Inject 3 [14] was 2, the Ave [15] was 4 and the Inject 1 [15] was 5. It also gave an Inject 2 [15] of 4, an Inject 3 [15] of 3 and an Ave (Filamin-A (human)) of 5. The Inject 1 (Filamin-A (human)) was 5, the Inject 2 (Filamin-A (human)) was 3 and the Inject 3 (Filamin-A (human)) was 7.
